Measured values: the supplement of paper PMC10126150
± gives the standard deviation of the averaged measurements.
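Also: ATP exposure 15 min at 22 °C before imaging.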

The sequences below were run on ATP (assay: switch fluorescence ratio, 500 uM ATP over buffer (Cy3 cluster intensity, sum of 5 cycles each) (fold (ratio)); higher = stronger signal-on switching upon ATP binding; sequences stand for … in TCGTCGGCAGCGTCAGATGTGTATAAGAGACAGTTTTTTTTTTTTTTTTTTTTTTTTT…TC). Settings: aptamer strand: ATP DNA aptamer (quencher-CACCTGGGGGAGTATTGCGGAGGAAGG + anchor), 100 nM annealed; ATP concentration: 500 uM.
Procedure, shortened: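 The fluorescence ratio divides summed target-cycle Cy3 intensity by summed buffer-cycle Cy3 intensity for each cluster and is averaged per switch-domain sequence. Cy3-labelled switching-strand clusters on a modified Illumina MiSeq flow-cell were annealed to 100 nM quencher-labelled ATP aptamer, then imaged in selection buffer and again after 15 min with 500 uM ATP at 22 °C. Five such cycles were run, with NaOH stripping and re-annealing between them, and clusters outside 100-1000 RFU were excluded.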
GGTGCAGTGT showed a switch fluorescence ratio of 1.05 ± 0.017.
CGGTTTGGCT was tested, and the switch fluorescence ratio was 1.08 ± 0.12.
CCGTCAGAGT was tested, and the switch fluorescence ratio was 1.09 ± 0.014.
Work on CGAGTTTTGC yielded a switch fluorescence ratio of 1.03 ± 0.026.
GACTCAGACA was tested, and the switch fluorescence ratio was 1.03 ± 0.047.
Work on GGCGAAAAGG yielded a switch fluorescence ratio of 0.993 ± 0.047.
With AGGTAAGGCT the switch fluorescence ratio was 0.976 ± 0.025.
TCTACGGTGC showed a switch fluorescence ratio of 1.5 ± 0.24.
In the case of GATTGCTTGA, the switch fluorescence ratio is reported as 0.999 ± 0.034.
Work on GGTCTAAGGG yielded a switch fluorescence ratio of 0.976 ± 0.036.
In the case of CGGGTGGGTC, the switch fluorescence ratio is reported as 1.29 ± 0.51.
GCTCAGGGGG gave a switch fluorescence ratio of 1.03 ± 0.016.
With AATTGGTTAG the switch fluorescence ratio was 0.984 ± 0.054.
Work on GATAGTAGC yielded a switch fluorescence ratio of 0.978 ± 0.024.
For TCAGTTGTAC, the switch fluorescence ratio was 1.08 ± 0.011.
ATGTCAGCGC showed a switch fluorescence ratio of 1 ± 0.044.
AAGTTTTGAC was tested, and the switch fluorescence ratio was 1 ± 0.014.
GCCGGATT gave a switch fluorescence ratio of 1.01 ± 0.04.
With CCTGCATTTG the switch fluorescence ratio was 1.0933 ± 0.00019.
AAAACAAACT gave a switch fluorescence ratio of 1.26 ± 0.38.
For CCTCATCGAG, the switch fluorescence ratio was 1.07 ± 0.024.
CGGCAAATAG showed a switch fluorescence ratio of 2.52 ± 0.3.
With AAGTGGATAT the switch fluorescence ratio was 0.999 ± 0.024.
In the case of GAATGGCTAG, the switch fluorescence ratio is reported as 1.0109 ± 0.00049.
Work on TTACTGGTTA yielded a switch fluorescence ratio of 1.01 ± 0.029.
For TTCCATGTGT, the switch fluorescence ratio was 1.06 ± 0.044.
GGCGCTTCGG was tested, and the switch fluorescence ratio was 0.967 ± 0.05.
With ATAGTGAGCG the switch fluorescence ratio was 1.01 ± 0.025.
Work on TTATTACGG yielded a switch fluorescence ratio of 1 ± 0.027.
Work on TTGATCGCTC yielded a switch fluorescence ratio of 1.82 ± 1.
CATAGGTTCT gave a switch fluorescence ratio of 0.986 ± 0.023.
For AGTCGGGTTC, the switch fluorescence ratio was 0.973 ± 0.032.
GGAATCATAG gave a switch fluorescence ratio of 1.06 ± 0.07.
For TTTCAGGGTT, the switch fluorescence ratio was 1.03 ± 0.072.
In the case of GGTGAAAAAG, the switch fluorescence ratio is reported as 1.01 ± 0.011.
GAACCGATGT was tested, and the switch fluorescence ratio was 1.009 ± 0.0089.
CTGTTAGGTA was tested, and the switch fluorescence ratio was 1.007 ± 0.01.
Sequence ATATGAAGAG has a switch fluorescence ratio of 0.99884 ± 9.2e-05.
Sequence GCTAGGGTA has a switch fluorescence ratio of 0.9973 ± 0.0043.
GCTTCAAGTC was tested, and the switch fluorescence ratio was 0.978 ± 0.018.
For ATATGGTGCT, the switch fluorescence ratio was 1.004 ± 0.0074.
GGGTTTAAAA showed a switch fluorescence ratio of 0.985 ± 0.044.
CTTAATTTGA was tested, and the switch fluorescence ratio was 0.984 ± 0.058.
Sequence AAGGAGAGTG has a switch fluorescence ratio of 0.991 ± 0.028.
For CACAGGCCAA, the switch fluorescence ratio was 1.2 ± 0.029.
For TTGGACCGTG, the switch fluorescence ratio was 0.973 ± 0.069.
With CACCGTGTGG the switch fluorescence ratio was 1.006 ± 0.0088.
With TGTGGTGGGG the switch fluorescence ratio was 0.996 ± 0.042.
ATTTGCCGGG was tested, and the switch fluorescence ratio was 1.031 ± 0.0081.
ATATTTTGTG showed a switch fluorescence ratio of 0.982 ± 0.026.
Work on GGTTAGGATG yielded a switch fluorescence ratio of 0.97 ± 0.025.
TTGCTGTTTC gave a switch fluorescence ratio of 1 ± 0.067.
With CTATACGGTT the switch fluorescence ratio was 0.983 ± 0.03.
Work on GGACTCTGCG yielded a switch fluorescence ratio of 1 ± 0.028.
For TAAATGGTGG, the switch fluorescence ratio was 0.977 ± 0.015.
In the case of AGTTGTTTGT, the switch fluorescence ratio is reported as 0.966 ± 0.016.
GCCGGGATCG was tested, and the switch fluorescence ratio was 0.97 ± 0.03.
TTACGTTTTT showed a switch fluorescence ratio of 0.999 ± 0.011.
Work on CGTGGAGCGA yielded a switch fluorescence ratio of 1.04 ± 0.02.
Work on TTCAAAGGGT yielded a switch fluorescence ratio of 1.005 ± 0.0049.
CGTTTTTTCT was tested, and the switch fluorescence ratio was 0.974 ± 0.015.
CACATGCTGT was tested, and the switch fluorescence ratio was 0.995 ± 0.038.
TCATTTATTA was tested, and the switch fluorescence ratio was 1.04 ± 0.023.
TTAAGGCGGA showed a switch fluorescence ratio of 1.04 ± 0.023.
In the case of CACTTGCAGA, the switch fluorescence ratio is reported as 0.999 ± 0.013.
Work on AGTGTATACT yielded a switch fluorescence ratio of 0.9886 ± 0.0021.
With CGAATTAGAA the switch fluorescence ratio was 0.982 ± 0.042.
In the case of GGGTTGGTAG, the switch fluorescence ratio is reported as 0.984 ± 0.026.
TGGGGGTAGC was tested, and the switch fluorescence ratio was 1.001 ± 0.0091.
CGGTATAAGG gave a switch fluorescence ratio of 0.982 ± 0.046.
Work on AGGTCGGATG yielded a switch fluorescence ratio of 1.004 ± 0.0056.
Work on CGCAAAATTT yielded a switch fluorescence ratio of 1.11 ± 0.11.
TGGGATCTGG was tested, and the switch fluorescence ratio was 0.997 ± 0.037.
In the case of AAAGAACACT, the switch fluorescence ratio is reported as 1.06 ± 0.037.
Work on TGGTTCCGGG yielded a switch fluorescence ratio of 1.01 ± 0.02.
AAGTGACAGC was tested, and the switch fluorescence ratio was 1 ± 0.031.
In the case of GATTGGGCTG, the switch fluorescence ratio is reported as 0.984 ± 0.056.
TAGGCGGTTT showed a switch fluorescence ratio of 0.9641 ± 0.00067.
AAGGATGGGG gave a switch fluorescence ratio of 0.98 ± 0.022.
Sequence TCCCTTTGGG has a switch fluorescence ratio of 0.971 ± 0.038.
Sequence TATGTGAGGA has a switch fluorescence ratio of 0.989 ± 0.025.
CTGAGGAAGT gave a switch fluorescence ratio of 0.9908 ± 0.0088.
In the case of GTTTTATTTT, the switch fluorescence ratio is reported as 1 ± 0.047.
GGTTAAAGGG showed a switch fluorescence ratio of 1.07 ± 0.15.
In the case of GCGAACGCGC, the switch fluorescence ratio is reported as 1.27 ± 0.011.
TTATAGAGTT gave a switch fluorescence ratio of 0.9649 ± 0.0032.
GGTGTGGAAA was tested, and the switch fluorescence ratio was 1 ± 0.015.
Sequence GTTAATAGTG has a switch fluorescence ratio of 0.988 ± 0.021.
Work on AATCGGCTGG yielded a switch fluorescence ratio of 1.01 ± 0.011.
With TGGTTCAGTG the switch fluorescence ratio was 0.993 ± 0.048.
Work on TTGGAATCGA yielded a switch fluorescence ratio of 1.06 ± 0.035.
TAATAGTAAG showed a switch fluorescence ratio of 0.996 ± 0.053.
Sequence TGCGGGCGTT has a switch fluorescence ratio of 0.993 ± 0.013.
With CTATAAAGTT the switch fluorescence ratio was 0.979 ± 0.024.
Work on CGAGTTTTTT yielded a switch fluorescence ratio of 1 ± 0.021.
For TGTAATCCGG, the switch fluorescence ratio was 0.986 ± 0.012.
Work on GGCGAAAATA yielded a switch fluorescence ratio of 1.007 ± 0.0079.
Sequence TGGGGCGCTG has a switch fluorescence ratio of 0.981 ± 0.011.
Sequence GGGACCTTTG has a switch fluorescence ratio of 0.994 ± 0.01.
GTGTTTAGGG was tested, and the switch fluorescence ratio was 0.999 ± 0.021.
For GGCAGTATTT, the switch fluorescence ratio was 1.0371 ± 0.00098.
In the case of GGGTGGTGGA, the switch fluorescence ratio is reported as 1.01 ± 0.019.
CAGGGTGCAT showed a switch fluorescence ratio of 1.02 ± 0.051.
Work on GTTTTCTGAG yielded a switch fluorescence ratio of 0.9658 ± 0.0089.
GTTATTGCGT showed a switch fluorescence ratio of 0.982 ± 0.05.
Work on ATATCATTCA yielded a switch fluorescence ratio of 1.01 ± 0.019.
Work on TCGACCTTCT yielded a switch fluorescence ratio of 1.77 ± 0.17.
In the case of TATAACTATT, the switch fluorescence ratio is reported as 0.999 ± 0.042.
With AATGAAGGTC the switch fluorescence ratio was 0.965 ± 0.079.
For TAAAAGATTT, the switch fluorescence ratio was 1.01 ± 0.037.
CTCGGGACGG gave a switch fluorescence ratio of 1.005 ± 0.01.
Sequence ACATTAAGTA has a switch fluorescence ratio of 1.02 ± 0.037.
In the case of TCGGGGAATT, the switch fluorescence ratio is reported as 0.989 ± 0.032.
For CGGTATGATC, the switch fluorescence ratio was 1.02 ± 0.022.
TTTTGTCTGC was tested, and the switch fluorescence ratio was 0.98876 ± 0.00074.
Sequence CTAGTAGGGG has a switch fluorescence ratio of 0.984 ± 0.022.
GCTAGGCATG gave a switch fluorescence ratio of 1.04 ± 0.027.
With CCCGCTAGTG the switch fluorescence ratio was 1.54 ± 0.12.
Work on TAAATGGTTT yielded a switch fluorescence ratio of 1.02 ± 0.023.
Work on TTTGACGGGT yielded a switch fluorescence ratio of 1.02 ± 0.029.
In the case of TGACTGGGGT, the switch fluorescence ratio is reported as 1.02 ± 0.068.
Sequence TTGAGTGTGC has a switch fluorescence ratio of 1.02 ± 0.023.
For AAGAGCGGTG, the switch fluorescence ratio was 0.952 ± 0.0049.
In the case of ATATTCGGAA, the switch fluorescence ratio is reported as 0.99369 ± 0.00071.
For ATGTATGTTG, the switch fluorescence ratio was 0.982 ± 0.072.
Work on ACTAGCTGTA yielded a switch fluorescence ratio of 0.982 ± 0.034.
In the case of GGTAGAAGCG, the switch fluorescence ratio is reported as 1.02 ± 0.026.
Work on AACAGCTGTG yielded a switch fluorescence ratio of 0.998 ± 0.013.
ACCCGAGCAT showed a switch fluorescence ratio of 1.79 ± 0.12.
With TCGAGTTTGC the switch fluorescence ratio was 0.931 ± 0.027.
GGATTGTATG was tested, and the switch fluorescence ratio was 0.994 ± 0.032.
GAGTTGAGGA showed a switch fluorescence ratio of 0.98 ± 0.014.
CTAATTATGA was tested, and the switch fluorescence ratio was 1.01 ± 0.048.
Work on TTACTATGGC yielded a switch fluorescence ratio of 0.966 ± 0.032.
TTGAGTTTGT was tested, and the switch fluorescence ratio was 0.977 ± 0.015.
AAACGGGGGT was tested, and the switch fluorescence ratio was 0.991 ± 0.0073.
Sequence GTCGTTTGGA has a switch fluorescence ratio of 1.01 ± 0.035.
In the case of TTTTAAGTTG, the switch fluorescence ratio is reported as 1.01 ± 0.045.
For GCGTCTTGGG, the switch fluorescence ratio was 0.96 ± 0.025.
Work on TTCTTTTGTT yielded a switch fluorescence ratio of 1 ± 0.025.
CTGAATTGGG was tested, and the switch fluorescence ratio was 0.999 ± 0.021.
Work on AGCTACGTCG yielded a switch fluorescence ratio of 0.942 ± 0.034.
In the case of CGTTAGTGTA, the switch fluorescence ratio is reported as 0.99 ± 0.023.
In the case of TAGTACAGGC, the switch fluorescence ratio is reported as 1.06 ± 0.015.
For GCTTGCGGTC, the switch fluorescence ratio was 0.9873 ± 0.0095.
With TGGATGGGGA the switch fluorescence ratio was 0.98 ± 0.028.
In the case of AGGAGTACGT, the switch fluorescence ratio is reported as 0.988 ± 0.013.
With GGCGGGGGGT the switch fluorescence ratio was 1.01 ± 0.024.
Work on TGGGGAAAGT yielded a switch fluorescence ratio of 1.03 ± 0.036.
TTTCGGGGGG was tested, and the switch fluorescence ratio was 1.02 ± 0.037.
For GGGGTACACT, the switch fluorescence ratio was 0.9949 ± 0.0056.
Work on TGTTGATACT yielded a switch fluorescence ratio of 1.06 ± 0.12.
Work on CGTTATTCAC yielded a switch fluorescence ratio of 1.03 ± 0.036.
In the case of TTTAAGATTT, the switch fluorescence ratio is reported as 1.01 ± 0.03.
Work on CGGATCCTTC yielded a switch fluorescence ratio of 1.02 ± 0.037.
TCGTCGCAGG gave a switch fluorescence ratio of 1.1 ± 0.058.
For AATCCGGAAC, the switch fluorescence ratio was 1.92 ± 0.023.
